Reference: patent US20230105029A1 (CHIA TAI TIANQING PHARMACEUTICAL GROUP, published 2023)
Substitutions are numbered along the chain they refer to.

B1: huB8G11F2B7G5E8-V14 (antibody, human IgG4 S228P, kappa, V domains shown)
VH: EVQLVQSGAEVKKPGATVKISCKVSGFNIKDTYMHWVKQAPGKGLEWMGRIDPTNGYTIYASKFQGKATITADTSSNTAYMELSSLRSEDTAVYHCVSRRPWFAYWGQGTLVTVSS
VL: DIVMTQTPLSLSVTPGQPASISCRSSQSIVHSNGNTYLEWYLQKPGQSPQLLIYKVTNRFSGVPDRFSGSGSGTDFTLKISRVEAEDVGVYYCFQGSHVPYTFGQGTKLEIKR
notes: Humanized, human IgG4/kappa; also called huBSG11F2B7G5E8-V14
B2: huB8G11F2B7G5E8-V4 (antibody, human IgG4 S228P, kappa, V domains shown)
VH: B1 VH with V24A
VL: B1 VL
notes: Humanized, human IgG4/kappa; also called huBSG11F2B7G5E8-V4
B3: huB8G11F2B7G5E8-V2 (antibody, human IgG4 S228P, kappa, V domains shown)
VH: B1 VH with M48V
VL: B1 VL
notes: Humanized, human IgG4/kappa; also called huBSG11F2B7G5E8-V2
B4: huB8G11F2B7G5E8-V13 (antibody, human IgG4 S228P, kappa, V domains shown)
VH: QVQLQQSGAELVKPGASVKLSCTASGFNIKDTYMHWVKQRPEQGLEWVGRIDPTNGYTIYASKFQGKATITADTSSNTAYMQLSSLTSEDTAVYHCVSRRPWFAYWGQGTTLTVSS
VL: B1 VL
notes: Humanized, human IgG4/kappa; also called huBSG11F2B7G5E8-V13
B5: huB8G11F2B7G5E8-V9 (antibody, human IgG4 S228P, kappa, V domains shown)
VH: B1 VH with V24A, M48V, H95Y
VL: B1 VL
notes: Humanized, human IgG4/kappa; also called huBSG11F2B7G5E8-V9
B6: huB8G11F2B7G5E8-V11 (antibody, human IgG4 S228P, kappa, V domains shown)
VH: B1 VH with K38Q, R50L, S62E, K67R, A68V, S76T, N77D, H95Y
VL: B1 VL
notes: Humanized, human IgG4/kappa; also called huBSG11F2B7G5E8-V11
B7: huB8G11F2B7G5E8-V8 (antibody, human IgG4 S228P, kappa, V domains shown)
VH: B1 VH with V24A, M48V, N77D
VL: B1 VL
notes: Humanized, human IgG4/kappa; also called huBSG11F2B7G5E8-V8
B8: huB8G11F2B7G5E8-V7 (antibody, human IgG4 S228P, kappa, V domains shown)
VH: B1 VH with V24A, M48V, S76T
VL: B1 VL
notes: Humanized, human IgG4/kappa; also called huBSG11F2B7G5E8-V7
B9: huB8G11F2B7G5E8-V6 (antibody, human IgG4 S228P, kappa, V domains shown)
VH: B1 VH with V24A, M48V, A68V
VL: B1 VL
notes: Humanized, human IgG4/kappa; also called huBSG11F2B7G5E8-V6
B10: huB8G11F2B7G5E8-V10 (antibody, human IgG4 S228P, kappa, V domains shown)
VH: B1 VH with V24A, M48V, K67R, A68V, S76T
VL: B1 VL
notes: Humanized, human IgG4/kappa; also called huBSG11F2B7G5E8-V10

What follows are binders tested against T1, human IL4Rα expressed on 293F-IL4Rα cells (human, UniProt P24394 26-825) (assay: flow cytometry, blocks biotin-IL4 binding to 293F-IL4Rα cells).
T1 construct: whole, on cells; also called cell surface human IL4Rα
Protocol: Then, 1×10⁵ cells per well in 96 well-plates were incubated in 100 μL of the anti-IL4Rα antibodies or controls of various concentrations (starting at 80 nM with a 4-fold serial dilution) in FACS buffer for 40 minutes on ice. The plates were washed twice with FACS buffer, and added and incubated for 40 minutes at 4° C. in dark with 100 μl/well 1.67 nM biotin-labeled human IL4 protein (Sino biological inc., Cat #11846-HNAE). The plates were washed twice with FACS buffer, and then added and incubated for 40 minutes at 4° C. in dark with 100 μl/well R-Phycoerythrin Streptavidin (1:500 dilution in FACS buffer, Jackson Immunoresearch, Cat #016-110-084). Cells were washed twice and resuspended in FACS buffer. Fluorescence was measured using a Becton Dickinson FACS Canto II-HTS equipment. Data was analyzed using Graphpad Prism software and IC₅₀ values were reported.
Binder B1 has an IC50 of 0.6 nM.
Binder B2 has an IC50 of 0.51 nM.
B3 gave an IC50 of 0.54 nM.

Each binder was assayed against T2, recombinant human IL4Rα-his protein (in house made) (human, UniProt P24394 26-232, limits assumed) (assay: SPR (Biacore), antibody captured, IL4Rα-his flowed).
T2 construct: also called Human IL4Ra-his
For B1, the Kd was 3.88 nM.
For B2, the Kd was 5.5 nM.
B3 gave a Kd of 4.1 nM.

The binders below were run against T2, recombinant human IL4Rα-his protein (in …) (assay: capture ELISA, biotin-IL4Rα-his).
B1 gave an EC50 of 0.24 nM.
In the case of B2, the EC50 is reported as 0.27 nM.
B3 showed an EC50 of 0.27 nM.

These binders were tested against T3, cynomolgus monkey IL4Rα-his protein (cynomolgus monkey, UniProt A0A2K5V580 33-239) (assay: indirect ELISA on coated cynomolgus IL4Rα-his).
T3 construct: Bought protein; also called Cynomolgus IL4Rα; Cyno-IL4Rα-his; not shown: his tag
In the case of B1, the EC50 is reported as 137 nM.
Binder B2 has an EC50 of 7.12 nM.
B3 showed an EC50 of 914 nM.

What follows are binders tested against T3, cynomolgus monkey IL4Rα-his protein (assay: indirect ELISA, coated cyno IL4Rα-his).
For B1, the EC50 was 137 nM.
In the case of B2, the EC50 is reported as 7.12 nM.
With B3 the EC50 was 914 nM.

The binders below were run against T2, recombinant human IL4Rα-his protein (in …) (assay: competitive ELISA: coated human IL4Rα-his, blocked ligand biotin human IL4).
B1 showed an IC50 of 1.02 nM.
B2 gave an IC50 of 0.825 nM.
Work on B3 yielded an IC50 of 1 nM.

Target: T2, recombinant human IL4Rα-his protein (in …)
Experiment: SPR (Biacore), antibody captured, IL4Rα-his flowed
Remark: another data set of the same source
For B1, the Kd was 3.69 nM, the koff was 0.00113 s⁻¹ and the kon was 306000 M⁻¹ s⁻¹.
B4 gave a Kd of 3.87 nM, a koff of 0.0012 s⁻¹ and a kon of 310000 M⁻¹ s⁻¹.
B5 showed a Kd of 5.32 nM, a koff of 0.00331 s⁻¹ and a kon of 621000 M⁻¹ s⁻¹.
B2 was tested, and the Kd was 3.21 nM, the koff was 0.00185 s⁻¹ and the kon was 577000 M⁻¹ s⁻¹.
B6 was tested, and the Kd was 14.9 nM.
With B3 the Kd was 3.1 nM, the koff was 0.00162 s⁻¹ and the kon was 521000 M⁻¹ s⁻¹.
For B7, the Kd was 4.89 nM, the koff was 0.00283 s⁻¹ and the kon was 578000 M⁻¹ s⁻¹.
Work on B8 yielded a Kd of 3.75 nM, a koff of 0.00222 s⁻¹ and a kon of 592000 M⁻¹ s⁻¹.
In the case of B9, the Kd is reported as 3.95 nM, the koff is reported as 0.00219 s⁻¹ and the kon is reported as 554000 M⁻¹ s⁻¹.
In the case of B10, the Kd is reported as 4.79 nM, the koff is reported as 0.0028 s⁻¹ and the kon is reported as 585000 M⁻¹ s⁻¹.

These binders were tested against human IL4Rα expressed on HEK293T-IL4Rα-STAT6-STAT6LUC-LB2 cells (human, UniProt P24394 26-825) (assay: cell-based or functional assay).
In the case of B1, the “Inhibition on IL4 induced STAT6 phosphorylation (IC50, nM)” value is reported as 0.26 nM and the “Inhibition on IL13 induced STAT6 phosphorylation (IC50, nM)” value is reported as 0.66 nM.
With B2 the “Inhibition on IL4 induced STAT6 phosphorylation (IC50, nM)” value was 0.3 nM and the “Inhibition on IL13 induced STAT6 phosphorylation (IC50, nM)” value was 0.81 nM.
B3 was tested, and the “Inhibition on IL4 induced STAT6 phosphorylation (IC50, nM)” value was 0.4 nM and the “Inhibition on IL13 induced STAT6 phosphorylation (IC50, nM)” value was 0.63 nM.

Target: T4, marmoset monkey IL4Rα-his protein (marmoset monkey)
T4 construct: Custom made by Sino biological; no cleavage site stated; also called cal-IL4Rα-his; Cal-IL4Rα
T4 chain: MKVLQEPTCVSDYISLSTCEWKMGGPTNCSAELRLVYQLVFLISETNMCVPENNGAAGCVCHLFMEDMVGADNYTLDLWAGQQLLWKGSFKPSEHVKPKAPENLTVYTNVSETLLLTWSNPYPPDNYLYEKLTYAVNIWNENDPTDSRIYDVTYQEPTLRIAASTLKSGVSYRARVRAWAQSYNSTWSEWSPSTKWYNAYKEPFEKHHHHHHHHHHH
Experiment: indirect ELISA, coated cal-IL4Rα-his
B1 gave an EC50 of 1.06 nM.
B2 showed an EC50 of 0.73 nM.
With B3 the EC50 was 0.8 nM.

Each binder was assayed against T1, human IL4Rα expressed on 293F-IL4Rα … (assay: flow cytometry, 293F-IL4Rα cells).
Protocol: Then, 2×10⁵ cells per well in 96 well-plates were incubated in 100 μL of the anti-IL4Rα antibodies or controls of various concentrations (starting at 80 nM with a 4-fold serial dilution) in FACS buffer for 40 minutes on ice. […] Following an incubation of 40 minutes at 4° C. in dark, cells were washed three times and resuspended in FACS buffer. Fluorescence was measured using a Becton Dickinson FACS Canto II-HTS equipment. Data was analyzed using Graphpad Prism software and EC₅₀ values were reported.
B1 gave an EC50 of 0.52 nM.
B2 gave an EC50 of 0.41 nM.
For B3, the EC50 was 0.43 nM.

The binders below were run against T2, recombinant human IL4Rα-his protein (in …) (assay: competitive ELISA, blocks biotin-IL4 binding to coated IL4Rα-his).
Protocol: Serially diluted anti-IL4Rα antibodies or the controls (starting at 80 nM with a 4-fold serial dilution) in 2.5% w/v non-fatty milk in PBST, 100 μl per well, were added to the IL4Rα bound plates, and incubated with the human IL4Rα-his proteins at 37° C. for 40 minutes. Plates were washed 4 times using wash buffer, and then added and incubated for 40 minutes at 37° C. with 100 μl/well of 0.56 nM biotin-labeled human IL4 protein (Sino biological inc., Cat #11846-HNAE). Plates were washed again using wash buffer. Thereafter, the plates were added with 100 μl/well of streptavidin conjugated HRP (1:10000 dilution in PBST buffer, Jackson Immunoresearch, Cat #016-030-084) and incubated for 40 minutes at 37° C. Plates were washed again using wash buffer. Finally, TMB was added and the reaction was stopped using 1M H₂SO₄, and the absorbance was read at 450 nm. Data was analyzed using Graphpad Prism software and IC₅₀ values were reported.
In the case of B1, the IC50 is reported as 1.02 nM.
For B2, the IC50 was 0.82 nM.
With B3 the IC50 was 1 nM.

These binders were tested against T1, human IL4Rα expressed on 293F-IL4Rα … (assay: flow cytometry on 293F-IL4Rα cells, blocked ligand biotin human IL4).
Binder B1 has an IC50 of 0.601 nM.
For B2, the IC50 was 0.513 nM.
In the case of B3, the IC50 is reported as 0.538 nM.

What follows are binders tested against T2, recombinant human IL4Rα-his protein (in …) (assay: competitive ELISA: antibody mixed with biotin human IL4Rα-his, competitor plate-coated Benchmark).
Binder B1 has an IC50 of 0.763 nM.
Binder B2 has an IC50 of 1.24 nM.
B3 showed an IC50 of 1.2 nM.

What follows are binders tested against T1, human IL4Rα expressed on 293F-IL4Rα … (assay: flow cytometry on 293F-IL4Rα cells).
B1 showed an EC50 of 0.517 nM.
B2 was tested, and the EC50 was 0.414 nM.
For B3, the EC50 was 0.426 nM.

Target: T4, marmoset monkey IL4Rα-his protein
Experiment: indirect ELISA on coated cal-IL4Rα-his
Binder B1 has an EC50 of 1.06 nM.
With B2 the EC50 was 0.726 nM.
B3 gave an EC50 of 0.799 nM.

The binders below were run against T2, recombinant human IL4Rα-his protein (in …) (assay: competitive ELISA, blocks biotin-IL4Rα-his binding to coated Benchmark (competitor)).
Protocol: The ability of the anti-IL4Rα antibodies of the disclosure to block benchmark-human IL4Rα binding was measured in a competitive ELISA assay. Briefly, the benchmark was coated on 96-well micro plates at 2 μg/mL in PBS, 100 μl per well, and incubated overnight at 4° C. The next day, plates were washed with wash buffer (PBS+0.05% w/v Tween-20, PBST), and blocked with 5% w/v non-fatty milk in PBST for 2 hours at 37° C. tiring plate blocking, the anti-IL4Rα antibodies of the disclosure or controls were diluted with biotin labeled human IL4Rα-his proteins (prepared in-house with SEQ ID NO: 57, 0.55 nM in 2.5% w/v non-fatty milk in PBST), starting at 100 nM with a 4-fold serial dilution, and incubated at 25° C. for 40 minutes. After plate washing, the antibody/IL4Rα-his mixtures were added to benchmark coated plates, 100 μl per well. After incubation at 37° C. for 40 minutes, plates were washed using wash buffer. Then the plates were added and incubated with 100 μl/well streptavidin conjugated HRP for 40 minutes at 37° C. to detect biotin-labeled human IL4Rα-his bound to plates. Plates were washed again using wash buffer. Finally, TMB was added and the reaction was stopped using 1M H₂SO₄, and the absorbance was read at 450 nm. Data was analyzed using Graphpad Prism software and IC₅₀ values were reported.
In the case of B1, the IC50 is reported as 0.76 nM.
Binder B2 has an IC50 of 1.24 nM.
For B3, the IC50 was 1.2 nM.

These binders were tested against T2, recombinant human IL4Rα-his protein (in …) (assay: capture ELISA: antibody captured on anti-IgG Fc plate, biotin human IL4Rα-his detected).
B1 gave an EC50 of 0.237 nM.
Work on B2 yielded an EC50 of 0.275 nM.
Binder B3 has an EC50 of 0.274 nM.
